The source of these data is patent US20020193327A1.

For this test, the target named is protein receptor on Chang C cells (human). Put plainly: 125I-labeled virions on Chang C cells pretreated with 10 µg/ml trypsin, subtilisin, proteinase K or bromelain.

“Wild-type Ad37 (adenovirus type 37) particles”: the percent inhibition of specific binding after protease pretreatment of the cells was found to be 50%.
